Results on 34 sequences are retold here after the NTF2 design screens of Basanta et al. (2020).

The series can be described thus: protease stability score; higher = more stable; yeast display proteolysis, trypsin and chymotrypsin.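 Also: log10 excess protease needed over predicted unfolded state with 0 meaning unfolded.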
“DEEQVNKVRTLVESNDEKTMQELADPNAKAEIGNKRFHGMHRAAHVLTKLRKQADTVRYREIDVHNGQVHAHFSMHFNGKRIDARVVLKVRNGRLRHMKIEATDPHLEEELERQVQ” registered a protease stability score of 0.268.
As to “DEHVNKLAHRLLEAIEEGNPEMFKELADEDVHFQVGDKSYHGMEDYANSIVEKLRQMHFEIKSYSFRNEPGRATLDLRVQMEHDGQPRESKNTVDVKAKNGRVKRVKFREKR”, the protease stability score is 0.155.
To “DREVIKLAKRMITALQKGDHQKFVNLLDPNVRIDVGDKEVHGQEEAQERLREETRQIRVDNHVKTIDDNNGRANFKMSVNAQVNGKPVHYEVNAVVHAHNGKARRLHIKVPEEDKRHLDR” belongs 0.034; to “DDEEKHKLADEVLHILRTGDHDSMARLADENAKAEIGDSRFHGRDHIRKLVKEFRDTADHIRVIDYRVKGDKIVLRMEFVFNGKTSEVNVVMRFHNGRIKDIEVDPTQVRQMEK”, 1.03; to “DDDLRRRLHEFWENMQEGDEKRLREMADPNVRFEVGDKSIHGREEFARKVKELHEQQRFSVRIDRMDNQGNKVDITFHVTQKHNGRPNRYTARVTITAHNGKIKSVSVDISQ”, 0.391.
With “DEEIRDEIKKYFKALETGDPDKMREMFDPNAKVQVGDKVYHGMSEAARHWVRRAEKIRIEIQDLNIDVHGEDVVVEQVLVEDKNGRPQRKTERLTMDVEDGRVKRAHRHSVK”, the protease stability score was 0.186.
In the case of “DEEEKKKKAEHAAKAFVTGDEERMNQLASPDVTATVGDQRVHGRDDMNKLLQEFKRQADHVELKSFRNDENHVTIHVRVNHNGKMDKFVVNIRMHNGQVKIIHQTSS”, the protease stability score is -0.289.
To “DSEDLVRKFITEWEQAVQQGDEKQLQELMDEDAHVSVGDTKLHGREDIARELAEQIRHADHVQFRIESLSVHGDHVNLNQKVRYKHNGKTDSSRYRLQAIAHGDKVTLKSFHDG” belongs -0.28.
Turning to “DRREAHKRAQEMVDNFRDNDKDRIVELADKDVHARIGDKRLHGREELATFLVELARRADRVEVKSIHVQGEQIEMDMQMTVDGRERTFTLRMTYHNGKLKHLEIDPDDLRKIES”, the protease stability score was determined as 0.987.
To “DDEEQRKLAKEFIDLLRTGDEEHIAHQADKDVTFQIGDKRYTGQEELLKYMKHLVDRVDHIEVEEVDVRGNKVNVTVVVRYNGKRVTLNFDLEFSNGRLIHMSVDPDQQRQLDG” belongs 1.18.
For the sequence “DEEKDEDFARKVLQAVQTGDHDKIKKMADPNASATIGDKTWHGREQLSEAIRRWKEEADRVDVKSVSVQGDRASADMKVQHNGKMTDVRVFVEASNGRLKKLEIDTK”, the protease stability score came out at 1.16.
For the sequence “DEEALHLATQLYTNWRNNNPEEVVKLLDENARINVGDFNVTGRNNVRSTLEHLNREMHFEMRISSVDDHNGRAHLTVEARKNINGQPRNVSMKMEVQFHNGKIQQIVAHMPEEDIRTLQS”, the protease stability score came out at 0.811.
For the sequence “DQEDLKHLANVLRTGDWDRLRDLFDENARVKIGDKEVHGKEDAKKLAEQLKRSIDHMKISTWSITNGVLEMHFRVNVNGKTYEVQMELHAHNGRIKSMELHYRNREVKHVIKEMLD”, the protease stability score stood at 1.08.
To “DEEQEKTIHRAHKHNDEDSFRKLFDKDATMQIGNKTFHGREEVETAVTQWHTQVDHLRVDHMRVTNGKLQIDFTAVINGQRIELRVKIKANNGKVKSVKIQARSEEDNEHLKKELD” belongs 0.407; to “DEEALEILRDAWEALRTGDHEKLRELFDKNANVRIGEKRFEGSDEIMRDWLTTIRNIRFHIHDIKFTVNGDKAVVRVNVNFEHNGKPQSDVYRMSAEADNGRIKSADADRDK”, 0.391; to “DKHLEDLARTLVHALRTGDPQMINHLFDENARVEVGNRRVHGREDANQRMKEINSQARMHVRLTSLRVDENRADLTVDASARVNGQPNTLRYQFWFHQHNGRITSMSARMSEHDVKQFES”, -0.278.
Regarding “EEDDQRRLQEWLSQGNFEHLAQNADKDAKASVGEYRVHGREQIKRFLERMQDRIDKVHYETVHFHNGVLRATFRFTVNGKQVVMQMRIEARGDKIKYIEMQARDEDNLKKWKELES”, the protease stability score worked out at 1.03.
Turning to “DDHAVRMAKTYQKAIQHNDPDKMVDLVDPNAKIHIGDKDIQGREELRRWVKHRIDDINIIIERVSATDKGDKAIVTVDLVENENGRPHNVRFEVTFDFKNGRAQRVTVQESR”, the protease stability score was -0.088.
As to “DDKEVRRNAEIALKALRTGDEDDAMEQADEDAKMVIGDKEVHGREKLREAVKDFKEEADHVQVRHFEVQNGRVNAEMEVDVNGQKQIYVMHVEVHNGKIKEINIQHK”, the protease stability score came out at 0.787.
“DEDEWRKIWTVFENNDPRKFKTMVDKHAHAEVGDTEFHGREQIQHYFERLIRRVDHIEYKSVNIHGDKMRAEVVLNVDGQNLRYVYEVTVHNGRIKMMRIRFTDEEVERQMKRIVK” came in with a protease stability score of 0.209.
Take “DEDAQKRAEEMMHALQNGDEKQIQTLFDKDAKVNVGDKEYHGKEQLAHDLKRRHDKIRVDYKDVHIRAHGDKVSLTFRVRVKINGVPADNSFQFTLKFRNGHVQSMSQQFDPKYEQDQRN”: the protease stability score is -0.033.
Turning to “DEENHRRATELLRAWKTGDEEELKRQMPPDVHIRVGDQEVHGREQAVKHLAQRRREASFRFKIKEYELQGEKIRIVARAEVHHNGEPQRYVVRLVILYRNGQAEEINQQEDG”, the protease stability score is 1.25.
In turn, “DEDALRVFDKLVKAWKNNDEDKMKKLMDPNVKVEYGDKQVHGMDEYLHSMVTRQRQIRVHFRVKDIKTRPGRVVANYEVEEENDGKPHHTKVRVTLKVHNGRVKQAEYDVKP” came in with a protease stability score of 0.017.
The sequence “DEKDLEELAKDVIEAYQDGDEQRLRNNFDKDARWHIGDKTFHGRERNVRHLVEEAKRVDHIHVTTMEVQGNTVRMVLRMNHNGKSDHVDIQITFENGRAQSVTVTKP” came in with a protease stability score of 0.369.
Sequence “DEKLLDLLEKILQAEHENDPDQARELADPNVKYRYGDKSVNGRHEWVKDLERKTQKIKVEYKRIQVDAKGDKAHANVHMTVNHNGKPDKVLMEIVVRAHNGKVTELTVHEDK” showed a protease stability score of 0.041.
To “DEKQNQEMQDMLHTGDFKRIADLVDENAEWNYGDKTYHGRKTIKKFLDAFQHRADHVEVKRFDVHNGHVSANMQMNVDGRRIDFRVVVHVENGRVKEYRMDFTDPRQQREVERQVE” belongs 0.745; to “DEDHLKKFVSDLQHNSHERLSKQADENAEMEVGNKTYSGREQFSHFAQQQYHRADHFTIDRVEIRNGHITLEAVMVVDGHKIRFSAHAELHNGRLKFYVMKATNEDLVRQMNRLNN”, 0.701.
For the sequence “DHNDHARRLFEQWVQAIEHNDPDQIRKNLPPNVKVTIGDKTISGRENVVRTVKRELHRVDHIRIQLDHVEVQGDKIVLRANVRQDHNGQNRHFTLRLVANTFNGREQFIDIQLN”, the protease stability score is -0.121.
Consider “DDEESEKFAEDAMRILQTGDEEKFVRQADPNARVVYGEKTVHGREEAKKEVKTFRDRVDKIDVHHVEVTNGKAFLDATFRFDGRDRHYVVEIVRHNGRIKQMVMKKK”, for which the protease stability score was -0.166.
In turn, “DDRHVQKRLKTFIHILRTGDPQKISNLVDPNAEIQVGDKEYHGRHEIRKLIEELKTRVDHIDVVDMKAEGDKARANLNVNVNGHDIRFVVQLVWDNGHVKSVRIKYRNERVERQEKG” had a protease stability score of 1.61.
To “DKKQVHDVARTLVQYYVSGNSERVKQLGKEDVELHAGDRTYHGVDQMAKVVEQFKKYGVELEVKDVKVDGNRVTARVQFHKAGTTWEFKVDVQADGGKVDQVRVNVTEEAIKHIQHG” belongs 0.797; to “DEDANRRLRRLIEQIHENDPDKIDEMFDPNARVDIGDHTVHGREQLRQTVKREAKEIRIRIERLDVRVKGDKATVEMHFVRKNNGEPRSNRVVVTARIRNGKIESMKQTEDG”, 0.763.
“DERALDVARQLVEALNTGDPETANNLLDKNVHIRVGDKRIHGRKQHSRTVDREKKEIRRHLEKVTNKSKGDKADVDIQFQQTHNGRPTSNQMKMIVEARNGKVKRMSVREHG”: the protease stability score was -0.469.
“DDKKVHKAANRFVEMFRTGNPDDLHKQIDKDAHATVGDKTYRGRTHVVRQIIEMVERVDHVEVKSISVDGDHAKIDMVLRHDGQEERVDVVMRVHNGRFKSIEFQEQ” came in with a protease stability score of 0.512.
